Measurements published in US20250355001A1 (GTINVENT, published 2025).
Where no end group is shown, it is not given here. The star is where a group is joined. Biotin = O=C1N[C@H]2[C@H](CS[C@H]2CCCCC(=O)*)N1

Key:
dGAE (tau 297-391) [1] = target: T1, dGAE (tau 297-391) (human, UniProt P10636 614-708); assay: Biacore, for dGAE
T1 construct: monomer; also called dGAE95
Target sequence in this assay (P10636 614-708 limits assumed): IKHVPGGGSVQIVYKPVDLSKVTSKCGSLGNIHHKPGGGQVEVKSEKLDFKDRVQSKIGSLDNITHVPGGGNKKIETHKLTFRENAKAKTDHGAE

dGA (tau 297-390) [2] = target: T2, dGA (tau 297-390) (human, UniProt P10636 614-707); assay: direct ELISA
How it was run: (§1)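 Plates were coated with 1 μg/ml tau protein or truncated fragment, or with 5 μg/ml streptavidin followed by 1 μg/ml biotinylated 13mer peptide, then blocked with 2% MPBS. Anti-tau scAbs were added at a starting concentration and double diluted. Bound scAb was detected with HRP-conjugated anti-human C kappa by absorbance.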
Target sequence in this assay (P10636 614-707 limits assumed): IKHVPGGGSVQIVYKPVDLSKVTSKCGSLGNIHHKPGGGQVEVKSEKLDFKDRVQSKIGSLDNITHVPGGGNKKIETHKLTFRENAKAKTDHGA

[3] = target: T3, full length human tau protein 2N4R (hT40) (human, UniProt P10636 1-758); assay: direct ELISA
T3 construct: recombinant; also called T441
How it was run: as §1

dGAE (tau 297-391) [4] = target: T1, dGAE (tau 297-391); assay: sandwich ELISA, dGAE titrated, S1D12 mAb capture
Target sequence in this assay (P10636 614-708 limits assumed): as the sequence (P10636 614-708 limits assumed) above

dGAE (tau 297-391) [5] = target: T1, dGAE (tau 297-391); assay: SPR, scAb captured, tau analyte
How it was run: (§2)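 scAb captured on flow cell 2 of an antibody-coated chip, flow cell 1 as reference; tau analyte injected 120 s association, 420 s dissociation, glycine pH 2.0 regeneration, in multi-cycle or single-cycle kinetics format. Responses fitted to a 1:1 binding model for kinetics and affinity.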
Target sequence in this assay (P10636 614-708 limits assumed): as above

tau fragment 1-49 = target: T4, tau fragment 1-49 (human); assay: direct ELISA
T4 construct: also called Tau 1-49
T4 peptide: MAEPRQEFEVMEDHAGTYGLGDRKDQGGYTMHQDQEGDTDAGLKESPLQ

[6] = target: T3, full length human tau protein 2N4R …; assay: sandwich ELISA, S1D12 mAb capture, scAb detection
How it was run: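 Read-out was HRP anti-HuCk with absorbance at 450 nm (positive above 0.3 after background subtraction) or chemiluminescence, including directly HRP-conjugated scAbs.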
Target sequence in this assay (P10636 other isoform, or with tags, fused parts or gaps limits assumed): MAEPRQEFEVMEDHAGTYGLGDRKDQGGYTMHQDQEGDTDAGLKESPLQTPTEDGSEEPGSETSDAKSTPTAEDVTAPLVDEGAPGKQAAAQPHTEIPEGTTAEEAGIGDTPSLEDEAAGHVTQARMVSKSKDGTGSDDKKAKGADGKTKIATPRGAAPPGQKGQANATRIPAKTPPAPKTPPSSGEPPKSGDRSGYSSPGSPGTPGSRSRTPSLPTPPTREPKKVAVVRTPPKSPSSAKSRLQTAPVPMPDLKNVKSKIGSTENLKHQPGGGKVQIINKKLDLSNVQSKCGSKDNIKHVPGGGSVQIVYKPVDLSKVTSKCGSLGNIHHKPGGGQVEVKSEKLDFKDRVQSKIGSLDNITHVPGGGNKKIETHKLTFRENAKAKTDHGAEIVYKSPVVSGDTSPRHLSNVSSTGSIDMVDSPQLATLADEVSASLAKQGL

[7] = target: T5, human tau (hT40) with P301S and G335D of Line 66 mice (human, UniProt P10636 1-758); assay: sandwich ELISA on brain homogenate, S1D12 mAb capture
T5 construct: transgene product in brain homogenate or plasma; also called L66 human tau
Experimental: All animals were female, 7-8 months old except Line 66+/+ which were 5 months old. […] For brain lysate preparation, half brains were sectioned into four and the individual sections were homogenised in 400 μl of ice cold RIPA buffer (Cell signalling Technology) containing protease and phosphatase inhibitors. Total protein concentrations for individual samples were established by BCA-assay and each sample was subsequently diluted to 1 mg/ml for future experiments.
Plate was washed as previously and then blocked for 1 hour at 37° C. in 2% MPBS. Brain homogenate samples (50 ng total protein) from each mouse type were added to the first wells and double diluted across the plate in PBS. These samples were left to incubate at RT for 1 hour. Various detection scAbs encompassing epitopes of interest were then added to the plate at 1 μg/ml and incubated for 1 h at RT. Secondary antibody used was anti-HuCk HRP and the assays were developed as described previously.

[8] = target: T3, full length human tau protein 2N4R …; assay: Biacore
How it was run: as §2
Target sequence in this assay (P10636 other isoform, or with tags, fused parts or gaps limits assumed): as above

mouse tau = target: T6, mouse tau (mouse, UniProt P10637 2-733); assay: sandwich ELISA on mouse plasma, S1D12 mAb capture
T6 construct: endogenous protein of mouse brain or plasma; also called endogenous mouse tau
T6 sequence (P10637 other isoform, or with tags, fused parts or gaps limits assumed): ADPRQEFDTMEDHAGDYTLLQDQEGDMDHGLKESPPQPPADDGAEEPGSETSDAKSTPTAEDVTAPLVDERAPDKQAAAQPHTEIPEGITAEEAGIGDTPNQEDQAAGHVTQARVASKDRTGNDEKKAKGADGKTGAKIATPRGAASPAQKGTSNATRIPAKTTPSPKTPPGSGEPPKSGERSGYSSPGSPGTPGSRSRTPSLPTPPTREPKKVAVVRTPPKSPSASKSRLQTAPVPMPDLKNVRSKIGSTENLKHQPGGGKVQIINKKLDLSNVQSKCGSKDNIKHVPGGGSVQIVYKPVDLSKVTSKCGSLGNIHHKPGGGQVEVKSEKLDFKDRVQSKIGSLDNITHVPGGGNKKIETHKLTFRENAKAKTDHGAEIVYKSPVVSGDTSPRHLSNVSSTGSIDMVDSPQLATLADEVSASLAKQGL
Experimental: After washing and blocking as normal, several known standard solutions were set up in triplicate starting at 20 ng/ml of the desired protein before double diluted in the remaining wells. Mouse samples were added to wells in duplicate with a blank in between each sample group. Line1 plasma was diluted 1:10 before addition to plate to account for its high concentration while other samples were diluted 1:2 to account for potential matrix effects. These samples were left to incubate at RT for 1 hour. HRP-conjugated secondary scAb (conjugation carried out according to manufacturer's guidelines, Abcam) was added to each well and left to incubate at RT for 1 hour. The ELISA was developed using SuperSignal ELISA Femto Substrate (Thermo Scientific) and total luminescence was read on Clariostar Plus plate reader (BMG Labtech). Tau concentrations were established using a 4-parameter fit on concentration curves generated from recombinant tau protein spiked into samples at known concentration. For WT and L66 hT40 was used as a calibrator while dGA was used for L1 calibration.

[9] = target: T3, full length human tau protein 2N4R …; assay: sandwich ELISA, hT40 titrated, S1D12 mAb capture, CB7 scAb at 1 µg/ml
Experimental: (§4) Four spiked samples were added to the first wells of designated rows and all samples were double diluted in PBS across the plate including the standard. […] Secondary antibody anti HuCk HRP was added and the reaction was developed and read as described previously. For ELISA #2, 20 nM dGAE was added to the first well and double diluted across the plate for standard curve plotting. As for ELISA #1, spiked samples of unknown protein concentrations were added to respective wells in doubling dilutions. […] For ELISA #3, a standard curve was plotted using average absorbance values obtained from binding events of hT40, dGA and dGAE all at starting concentration of 20 nM.

dGA (tau 297-390) [10] = target: T2, dGA (tau 297-390); assay: sandwich ELISA #1, S1D12 mAb capture, sample C
Target sequence in this assay (P10636 614-707 limits assumed): as the sequence (P10636 614-707 limits assumed) above
Experimental: To this end, an experiment was set up to assess whether the concentrations of different tau species could be determined in spiked samples using various antibody pairings directed towards specific regions of the tau protein.
as §4

[11] = target: T3, full length human tau protein 2N4R …; assay: SPR, summary table
How it was run: as §2
Target sequence in this assay (P10636 other isoform, or with tags, fused parts or gaps limits assumed): as the sequence (P10636 other isoform, or with tags, fused parts or gaps limits assumed) above

[12] = target: T3, full length human tau protein 2N4R …; assay: SPR, scAb captured, tau analyte
How it was run: as §2
Target sequence in this assay (P10636 other isoform, or with tags, fused parts or gaps limits assumed): as above

tau peptide 306-323 = target: T7, tau peptide 306-323; assay: peptide ELISA
T7 peptide: Biotin-VQIVYKPVDLSKVTSKCG

tau peptide 313-336 = target: T8, tau peptide 313-336 (human); assay: peptide ELISA
T8 peptide: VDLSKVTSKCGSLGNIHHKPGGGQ

dGA (tau 297-390) [13] = target: T2, dGA (tau 297-390); assay: SPR, scAb captured, tau analyte
How it was run: as §2
Target sequence in this assay (P10636 614-707 limits assumed): as the sequence (P10636 614-707 limits assumed) above

[14] = target: T9, tau fragment 266-359 (R1-3) (human, UniProt P10636 583-676); assay: direct ELISA
T9 sequence (P10636 583-676): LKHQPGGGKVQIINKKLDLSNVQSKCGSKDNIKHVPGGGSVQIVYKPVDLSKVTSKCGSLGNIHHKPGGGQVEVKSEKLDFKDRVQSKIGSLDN

tau fragment 369-391 [15] = target: T10, tau fragment 369-391 (human); assay: direct ELISA
T10 peptide: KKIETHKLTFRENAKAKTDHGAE

tau fragment 337-368 [16] = target: tau fragment 337-368 (human); assay: direct ELISA
tau fragment 337-368 (human), sequence (peptide, as listed by the source): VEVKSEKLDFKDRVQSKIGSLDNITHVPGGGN

tau fragment 369-390 [17] = target: T11, tau fragment 369-390 (human); assay: direct ELISA
T11 peptide: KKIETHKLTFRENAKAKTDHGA

dGAE (tau 297-391) [18] = target: T1, dGAE (tau 297-391); assay: ELISA
Experimental: (§3) A series of binding ELISA was performed using various truncated versions of the tau protein and 13mer peptide libraries spanning the entire hT40 molecule for mapping the epitopes of anti-tau scAbs (Full list of protein antigens used is given in Table 14). In general, ELISA plates were coated with 1 μg/ml hT40 or dGA or dGAE or other truncated versions of the protein and in the case of biotinylated peptides, plates were coated with 5 μg/ml Streptavidin followed by 1 μg/ml biotinylated peptide. The plates were blocked with 2% MPBS and scAb samples added at desired starting concentrations and double diluted across the plate. Binding was detected using anti-Human C Kappa HRP conjugated secondary antibody and the resulting immunoreaction was developed and absorbance values measured as described above.

[19] = target: T3, full length human tau protein 2N4R …; assay: direct binding ELISA
dGA (tau 297-390) [20] = target: T2, dGA (tau 297-390); assay: ELISA
Experimental: as §3

[21] = target: T3, full length human tau protein 2N4R …; assay: ELISA
Experimental: as §3
Target sequence in this assay (P10636 other isoform, or with tags, fused parts or gaps limits assumed): as the sequence (P10636 other isoform, or with tags, fused parts or gaps limits assumed) above

tau fragment 369-391 [22] = target: T10, tau fragment 369-391; assay: ELISA
Experimental: as §3

tau fragment 369-390 [23] = target: T11, tau fragment 369-390; assay: ELISA
Experimental: as §3

dGAE (tau 297-391) [24] = target: T1, dGAE (tau 297-391); assay: direct ELISA
tau fragment 186-350 = target: T12, tau fragment 186-350 (human, UniProt P10636 503-667); assay: direct ELISA
T12 construct: also called m186-350
T12 sequence (P10636 503-667): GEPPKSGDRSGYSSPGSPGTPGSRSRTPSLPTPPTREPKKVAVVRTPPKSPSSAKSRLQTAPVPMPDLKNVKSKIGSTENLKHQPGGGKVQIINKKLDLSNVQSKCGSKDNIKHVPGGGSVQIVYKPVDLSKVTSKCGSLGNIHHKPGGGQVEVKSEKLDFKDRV

tau peptide 341-353 = target: T13, tau peptide 341-353 (human); assay: ELISA on biotinylated peptide over streptavidin
T13 peptide: Biotin-SEKLDFKDRVQSK
Experimental: as §3

[25] = target: T3, full length human tau protein 2N4R …; assay: hT40 ELISA
Target sequence in this assay (P10636 other isoform, or with tags, fused parts or gaps limits assumed): as the sequence (P10636 other isoform, or with tags, fused parts or gaps limits assumed) above

[26] = target: T3, full length human tau protein 2N4R …; assay: hT40 ELISA; remark: listed apart in the source
tau fragment 337-368 [27] = target: tau fragment 337-368 (human); assay: direct ELISA; remark: listed apart in the source
[28] = target: T9, tau fragment 266-359 (R1-3); assay: direct ELISA; remark: listed apart in the source

B1: E2E8 scAb (scFv, not shown: small tags and cut ends)
scFv: QVQLQESGPSLVKPSQTLSLTCTVSGFSLTDRGVAWVRQAPGKALEWVGTMRSGGTIDYNPALKSRLSITRDTSKSQVFLSLSSVTTEDMAMYYCARGYLSGDRYAWGRGLLVTVSSEGKSSGASGESKVDDQAVLTQPSSVSKSLGQSVSIACSGSRSDIGYGNYVSWFQQIPGSAPKLLIYDTNTRASGVPDRFSGARSGNTATLTINSLQAEDEADYYCANIDSSRSHLFGSGTRLTVLG
notes: scAb
B1 was tested, and the Kd (dGAE (tau 297-391) [1]) was 0.4 nM, the binding result (dGA (tau 297-390) [2]) was “no binding (tested: 25 ug/ml)” and the binding result [3] was “no binding (tested: 25 ug/ml)”. For the same binder, the “EC50 (read off the curve)” value (dGAE (tau 297-391) [4]) was roughly 0.7 nM, the Kd (dGAE (tau 297-391) [5]) was 0.401 nM and the koff (dGAE (tau 297-391) [5]) was 0.000191 s⁻¹. The kon (dGAE (tau 297-391) [5]) was 477000 M⁻¹ s⁻¹.

B2: CB7 scAb (scFv, not shown: small tags and cut ends)
scFv: QVQLQESGPSLVKPSQTLSLTCTVSGFSLTNYRVGWVRQAPGKALEWVSNIRSGGTTWYNPALKSRLSITADTSKSQVSLSLSSVTTEDTAVYYCARDSSGDLYAYDYWGPGLLVTVSSEGKSSGASGESKVDDQAVLTQPSSVSRSLGQSVSMTCSGSSSNVGYGNYMAWFQQVPGSAPKLLIYGATSRASGVPDRFSGSRSGNTATLTISSLQAEDEADYYCASYDSTSGGVFGSGTRLTVLG
notes: scAb
With B2 the binding result (tau fragment 1-49) was “binds”, the LoD chemiluminescence detection [6] was 3.33 ng/mL and the LoD colourimetric detection [6] was 15 ng/mL. For the same binder, the binding result [7] was “binds”, the Kd [8] was 5.2 nM and the binding result (mouse tau) was “no binding”. For the same binder, the “EC50 (read off the curve)” value [9] was roughly 4 nM, the binding result (dGA (tau 297-390) [10]) was “no binding (tested: 2 nM dGA)” and the Kd [11] was 5.19 nM. It also gave a Kd [12] of 5.19 nM, a koff [12] of 0.000694 s⁻¹ and a kon [12] of 133000 M⁻¹ s⁻¹.

B3: E1B8 scAb (scFv, not shown: small tags and cut ends)
scFv: QVQLQESGPSLVKPSQTLSLTCTVSGFSLTNYPVGWVRQAPGKALEWIGNIENDGSANYASALKSRLSITRDTSKNQVSLSLSSATTEDTAVYYCGREFGGSDGYTYFVDIDYWGPGLLVTVSSEGKSSGASGESKVDDQAVLTQPSSVSKSLGQSVSITCSGSSSNVGYGNYVSWFQQVPGSAPKILIYGATSRASGVPDRFSGSRSGNTATLTITSLQAEDEADYYCASYDGSSSGVFGSGTRLTVLG
notes: scAb
In the case of B3, the binding result (tau peptide 306-323) is reported as “no binding (tested: 25 ug/ml)”, the “EC50 (read off the curve)” value (tau peptide 313-336) is reported as roughly 2 µg/mL and the Kd (dGA (tau 297-390) [13]) is reported as 17.7 nM. For the same binder, the koff (dGA (tau 297-390) [13]) was 0.00242 s⁻¹ and the kon (dGA (tau 297-390) [13]) was 137000 M⁻¹ s⁻¹.

B4: NS2A1 scAb (scFv, not shown: small tags and cut ends)
scFv: QVQLQESGPSLVKPSQTLSLTCTVSGFSLSTNSVGWVRQAPGKAPEWVAGIDTDGEEGFNPVLKSRLSITRDTSKSQVSLSLSNVTSEDTAVYYCGRSYRTDGLAYGYVQAIDYWGPGLLVTISSEGKSSGASGESKVDDQSVLTQPSSVSGSPGQTVSITCSGSYIGSSGVGWFQQLPGSGLRTIIVASDGRPSGVPDGFSMSKSGNTATLTISSLQAEDEADYFCGSSDRTQYTGLFGSGTRLTVLG
notes: scAb
B4: no binding (tested: 25 ug/ml) [14]; no binding (tested: 25 ug/ml) (tau fragment 369-391 [15]); no binding (tested: 25 ug/ml) (tau fragment 337-368 [16]). For the same binder, the binding result (tau fragment 369-390 [17]) was “no binding (tested: 25 ug/ml)”, the Kd [11] was 2.9 nM and the Kd (dGA (tau 297-390) [13]) was 5.4 nM. It also gave a koff (dGA (tau 297-390) [13]) of 0.00102 s⁻¹, a kon (dGA (tau 297-390) [13]) of 188000 M⁻¹ s⁻¹ and a Kd [12] of 2.9 nM. For the same binder, the koff [12] was 0.000739 s⁻¹ and the kon [12] was 252000 M⁻¹ s⁻¹.

B5: E2A6 scAb (scFv, not shown: small tags and cut ends)
scFv: QVQLQESGPSLVKPSQTLSLTCTVSGFSLTDWGVAWVRQAPGKALEWLGTMRSGGTTDDNPALKSRLSITRDTSKSQVSLSLSSVTTEDMAMYYCARGYLSGVHYAWGRGLLVTVSSEGKSSGASGESKVDDRVVRTQPSSVSKSLGQSVSITCSGSSSNVGAGNYVGWFQQVPGSAPKLLIYGATNRASGVPARFSGSKSGVTATLTITSLQAEDEADYYCASIDTSRSHIFGSGTRLTVLG
notes: scAb
B5: binds (dGAE (tau 297-391) [18]); no binding [19].

B6: MD9/MoD9 scAb (scFv, not shown: small tags and cut ends)
scFv: QVRLQESGPSLVKSSQTLSLTCTVSGFSLTRESIAWVRQAPGKVPEWLGGVGIDGTSYYSPALKSRLSITRDTSKSQASLSLSSVATEDTAMYYCARNYIDFEYWGPGLLVTVSSEGKSSGASGESKVDDQAVLTQLSSVSGSLGQRISITCSGSSSNVGIYDVSWFQQLPGSGLRTVIYGTNNRPSGVPDRFSGSRSGNTATLTISSLQSEDEAIYYCAAGDSSTIAVFGSGTRLTVLG
notes: scAb
B6: binds (dGA (tau 297-390) [20]); binds (dGAE (tau 297-391) [18]); binds [21]. B6: binds (tau fragment 369-391 [22]); binds (tau fragment 369-390 [23]).

B7: S1D12 scAb (scFv, not shown: small tags and cut ends)
scFv: QVQLQESGPSLVKPSQTLSLTCTVSGFSLNNNAVGWVRQAPGKVPESLVGCSSDGTCYYNSALKSRLDITRDTSKNQISLSLSSVTTDDAAVYYCTRGHYSIYGYDYLGTIDYWGPGLLVTVSSEGKSSGASGESKVDDQAVLTQPSSVSGSLGQRVSITCSGSSSNVGGGNSVGWYQHLPGSGLKTIIYDTNSRPSGVPDRFSGSRSGNTATLTINSLQAEDEGDYYCVTGDSTTHDDLVGSGTRLTVLG
notes: scAb
B7 was tested, and the “EC50 (read off the curve)” value (dGAE (tau 297-391) [24]) was roughly 3 µg/mL, the “EC50 (read off the curve)” value (tau fragment 186-350) was roughly 2 µg/mL and the “EC50 (read off the curve)” value (tau peptide 341-353) was roughly 0.8 µg/mL. For the same binder, the “EC50 (read off the curve)” value [25] was roughly 0.005 µg/mL, the “EC50 (read off the curve)” value [26] was roughly 1 µg/mL and the “EC50 (read off the curve)” value (tau fragment 337-368 [27]) was roughly 4 µg/mL. The Kd [11] was 0.122 nM, the Kd (dGA (tau 297-390) [13]) was 0.344 nM and the koff (dGA (tau 297-390) [13]) was 0.000418 s⁻¹. It also gave a kon (dGA (tau 297-390) [13]) of 1.21e+06 M⁻¹ s⁻¹, a Kd [12] of 0.122 nM and a koff [12] of 0.00015 s⁻¹. For the same binder, the kon [12] was 1.25e+06 M⁻¹ s⁻¹ and the “EC50 (read off the curve)” value [28] was roughly 0.5 µg/mL.
